Experimental data as given in the DeepSol protein solubility set.

Test: soluble on expression in E. coli; label from the status in PepcDB or PDB records

Sequence | soluble on expression in E. coli
MGSSHHHHHHSSGLVPRGSHMKKRIGIVGAGTAGLHLGLFLRQHDVDVTVYTDRKPDEYSGLRLLNTVAHNAVTVQREVALDVNEWPSEEFGYFGHYYYVGGPQPMRFYGDLKAPSRAVDYRLYQPMLMRALEARGGKFCYDAVSAEDLEGLSEQYDLLVVCTGKYALGKVFEKQSENSPFEKPQRALCVGLFKGIKEAPIRAVTMSFSPGHGELIEIPTLSFNGMSTALVLENHIGSDLEVLAHTKYDDDPRAFLDLMLEKLGKHHPSVAERIDPAEFDLANSSLDILQGGVVPAFRDGHATLNNGKTIIGLGDIQATVDPVLGQGANMASYAAWILGEEILAHSVYDLRFSEHLERRRQDRVLCATRWTNFTLSALSALPPEFLAFLQILSQSREMADEFTDNFNYPERQWDRFSSPERIGQWCSQFA | soluble
GMNQAMDTKQIAPFTLALPEGEALPLVCDSPHSGTFYPADFGAVVAPERLRGGEDTHVDALWEAVPRVGGTLLAATFPRVYIDPNRMLDDIDPAQLEGPWPTPLAPGEKTRLGYGLIWSNVDAATPIYDRKLTVAEVQRRINRYYRPYHAALTEAVEGAYQRFGAVWHLNLHSMPNNAYERLKIQSPRPLADFVLGDRDGTTCEPGLVDLVERELREKGYTVARNDPYKGVQLIAQIGRPAERRNSLQIEIRRPLYMEEGTRERNEGFATLQRDLTLLTLRIAEYVRRGV | soluble
MSLKEELLEAIYGTVERLEQKVDELSASPKNTEAESTPVSVSVDTSKLEKAILAMAVKEGEAIDKLVRLREAICIFTDLTKKEASKDEQRSKLLFDTINQVKQELNATSKNVQDKLHAMDNAPLKKVVTHRFEPTSKYVLLFIGGLALSLVISIWGNLAQWREYQAWEVADLKYRALKMVLPSDDPNVRYIEKHFSVCRDEKVIDDVRNCVAAYEDSIRHHHEMVEMATYKDSIANKLLQESNRIIRAMKSSKEGHHHHHH | not soluble
MRGSHHHHHHGSLQVTVRDAINQGMDEELERDEKVFLLGEEVAQYDGAYKVSRGLWKKYGDKRIIDTPISEMGFAGIAVGAAMAGLRPICEFMTFNFSMQAIDQVINSAAKTYYMSGGLQPVPIVFRGPNGASAGVAAQHSQCFAAWYGHCPGLKVVSPWNSEDAKGLIKSAIRDNNPVVVLENELMYGVPFEFPPEAQSKDFLIPIGKAKIERQGTHITVVSHSRPVGHCLEAAAVLSKEGVECEVINMRTIRPMDMETIEASVMKTNHLVTVEGGWPQFGVGAEICARIMEGPAFNFLDAPAVRVTGADVPMPYAKILEDNSIPQVKDIIFAIKKTLNI | soluble
MAHHHHHHMRIHHAFFRQSCRIMRGIDSARSTPTFVNGTDGMGTIHMLFSKRTHSNTTHSNADSAYMPGSNLHVEHPIVQLPARSLWCKQYPLDISLVRRGEFNDMIGRVRAARHYYQYPSLCAPKIGWNVQMFTLFDGTVFINPINLDALEVEEIAKQKSITFVEAEALWMEKKRREGKTCFAWEPCASCCFLLHFIERPSTVRVRAIAEDGNPFEVTLDKMRARMALHELDHLNGILFTRRIPDTSHVVPLEGFSTMSEWPDDYPSLEARSTFLYTTFTPPYTFITDSVEDAQLLDRKFEDGIYPGCEHDRRMRIESAAFEELQRAQWRMEKTREENSEEYDGVEGEVDEEDQEHCEETAAGGVAVKDNAPQ | not soluble
GSHMNTLKKAFEILDFIVKNPGDVSVSEIAEKFNMSVSNAYKYMVVLEEKGFVLRKKDKRYVPGYKLIEYGSFVLRRFNIRDIAHDHLVDIMKRTGETVHLILKDGFEGVYIDKVEGEQSIPMVSRLGMKVDLYSTASGKSILAFVPEKELKEYLKIVELKPKTPNTITNPRVLKRELEKIRKRGYAVDNEENEIGIMCVGVPIFDHNGYPVAGVSISGVARKFTEEKIEEYSDVLKEKAEEISRKLGY | soluble
MVSMNMFEEVEVEAYVYPTEDIEKVKKAMLNLVPGLKFEAFDKGEYMILVGRTRDKRALQRLYELFRGQQILDTARMMLEEGYFGEEIIIKVHKQVAYVGKVNFNEESPLGPITIIIRTKEPQKLMKWLAPRTKDGVPIEAAALEHHHHHH | not soluble
MAVDAVGRQKTIQEIIDSTTNKSTQRNTGELGKDEFLNLLITQLQYQDPLNPVDDKEFISQMAQFSALEQMQNLNKSFSATKAFGMIGKYITGTTSNGSDSGAGFVEGIVRSVKMENGKILLEVNGLDVPVDNVLSVSEESNYYYKYNSSNISQYTGIIGYEVSGSVYDPSTGDIVGVSGIVREIQKGIYEDYAVMDGVEVIISGIDTEFNSADPNFRKDYLTENVGQGVSLIITDAYGYGFKVPVTGVLKDFKIAPNGKIIGILDGVYVPVDSISNIKKPSANTGAADGTNENPQVEQSQTEESQVEEPQVGEPRDEESDSV | soluble
MKKRLSILIAGLASLSVNAATEPWASPEAEVLSRAQIQQVQGKQTYTYVRCWYRPAATHDDPYTTWEWAKNADGSYYTIQGYWWSSIRQKNMFYTTVQPETLLERCEETLGVNHDFADITYFAADHRFSYNHTIWSNDPEVQSNRISKVIAFGDSLSDTGNIFNASQWRFPNPDSWFLGHFSNGFVWTEYLAQGLNVPLYNWAVGGAAGRNQYVALTGVYEQVSSYLSYMRLAKNYQPENSLFTLEFGLNDFMNYNRSLADVKADYSSALIRLIDAGAKNLVLMTLPDATRAPQFQYATQEQIDTVRSKIIGMNAFIREQARYYQMQGIRIVLFDAYTLFDSITTQPEQHGFANANSPCLDIRRNSAADYLLSHSLSAECAKQGSDRFVFWEVTHPTTAIHHYLAEQILATEMAQFPL | not soluble
MGSDKIHHHHHHMNALRLEDLISVEMLQKVQDNFSAAVGIAMIIVDERGTPVTRPSNFSAFCQTIRTSAARRDQCFQCDDDGGRRAMAMGEPSIYQCHCGLVDFAAPIIVRDQYLGAVISGQVRLRQGHEVTLEYIAPPDESWRQDAHLIALREKITEIPYVKLRSAAYTLYHLAAYLVEESYSNAVSQELSAKNLKLMEESKRRVELEKSLREAELQALSYQVNPHFLFNVLNTIGRLALKEHAPKTEDMLYAFADMMRYVLKKSRSQIVSLQTEVGHVRNYLHIQKVRMGDRFTFTMDVPAKYDGILCPFMVLHPIVENSINYAIEPHEADGRIEITARDDGLNMILRVVDNGDGVSPELVRAALDGVAEPHGRTSIGLHNVDSRLRHFFGPDYGLTVESPATPGGRHGRRDALSPGLRSLRHLNACAEERRLCTALSLLKTRNSSARRCAPF | not soluble
MVSHHNLTTGATLINEQWLLTTAKNLFLNHSENATAKDIAPTLTLYVGKKQLVEIEKVVLHPNYSQVDIGLIKLKQKVSVNERVMPICLPSKDYAEVGRVGYVSGWGRNANFKFTDHLKYVMLPVADQDQCIRHYEGSTVPEKKTPKSPVGVQPILNEHTFCAGMSKYQEDTCYGDAGSAFAVHDLEEDTWYATGILSFDKSCAVAEYGVYVKVTSIQDWVQKTIAEN | not soluble
MGSDKIHHHHHHMDFAAIDKQISALEACIDSTVEVTPGEQLSVGVDLGTAYIVVVVLNAAGSPVACAMEFAQVIKDGLVVDYVGATRIVRRLVQQLEERLGRQLTHAAIAVPPGTGHKDSNTHRHVVEGAGLEVTAILDEPTAANAVLGVQNGVIVDIGGGTTGLSVIEDGKVTYVADEPTGGTHVSLVLAGSYRISFTEAEELKKDQDRQREILPVVRPVIQKMASIVNRHIEGRDISAIYLVGGTCCLKDFETVFEKETGRPVYKPANPFLVTPLGIALNCNA | not soluble
MGSDKIHHHHHHMVDLDLTQIQKDILYALITLYKKKSGGSVKGEEIAELINRNPGTVRNQMQALRALGLVEGVPGPKGGYRPTSKAYELLSVTRPEESVVVPVVVNGNVMEELSAEEIVLPSISNPNICQARIRIIGDIKKINPGDSVIVGPTPVNEMMVYGKVVGRDDTENTIVLDIEKIVALPKDTVGEHMSSPIISVDAEESVVNAAKVLAENGIYCTPVQKNGKFVGIFTLDHVAKAVAEGKLNAKVEEVMRPKLVMVEKDTKIGEALRLMRDEKVRILLVTDKGEPVGVITDQKILTRLAPEQVET | not soluble
MSLGVTVSKNEAQRLENLTRDALLSTRRLSLIVDLDQTIIHTTVDPTVAEWMDEIHREEMKDAQEKANVPTEEVKGKGEETTTPPGSPGPGALGITVESPKEKNPNAEALRDVAKFQIADDLPPGYVKLKTKTTKGQNPPESEGRWYFTKPRPGLQRFLDEMCQLYEMHVYTMGTRTYADAIVKVIDPDGKIFGGRILSRDESGSFSSKNLKRLFPTDTSMVVVIDDRSDVWGDCPNLVKVVPYDFFLGIGDINSSFLPTNKSTEGHHHHHH | soluble
MTKEEMRNAILDIFQSNPQSVMNYKQVSHLMGVEAAPQKLMVNSLMEDMAVDDILHEIERGRYRYNALGLIVIGTFERRFNGRNSFIPEGGGTPIFIAERNSAHAMDGDKVKVQLFAKRRGRAPEAAVIEIIEQKQATFVGKIQINRDFAFLVTEDRTLANDIFIPKDNLGNAKNGDKVIVRILEWPEQSKNPIGEVQAVLGPAGDNDAEMNAILAEFGLPYVYPQEVEEAADRLDGKITEEELARREDFRSILTFTIDPKDAKDFDDAISFRPLEDDCYEVGVHIADVSHYVTEGGIIDQEAYNRATSIYLVDRTIPMLPERLCNDLCSLRPDEEKYAYSCIFRMNDEAKVLDYRICHSVIKSDRRFAYEEAQAVIETGEGDCKEAILKLNELAQRLRKERFQNGAIAFERKEVRFEIDEKGRPLGVIVKESKEANKLIEEFMLLANRTVARHIGEETQGKRAKTFVYRIHDLPDPDKLETLSDFIRRFGYKLRTTGSNVEVSKSINSLLDNIQNKPEENLISTVAIRSMAKAIYSTDNIGHYGLAFDFYTHFTSPIRRYPDLMVHRLLTKYLSGGSSVDKNDYEEKCKHSSAMEQLAASAERASIKYKQVEFMSEHLGKVFDGVISGVTEWGLYVELKENMCEGLIPIRCLDDDYYEYDDKNFCLIGRRYRHRYSLGDAITVRVAQANLDRKQLDFEPVS | not soluble
MSKAKAPINTDELKQKYGRVYEIRIEGLEYENGEEAEFVFYFTRPKVSDISRFTKELNSKPDMAMKNLTFSCIVPEQEEELRQAAEEFPGLTFNTASRLMEIVGASAATSLKKL | soluble
NQNQTQHKQRPQATAEQIRLAQMISDHNDADFEEKVKQLIDITGKNQDECVIALHDCNGDVNRAINVLLEGNPDTHSWEMVGKKKGVSGQK | soluble
MSLINRKDALPITRQCRLLDLSRSGFYYTPRPVSAKDLELMRQIDEIHLAFPFYGSRKIRDELWARKHNVGLDKVRRLMRRMGIEALYVKPRLSLSYPEHVKYPYLLRRLEINRANQVWITDITYIPMAKGFCYLVAIMDEGHHHHHH | not soluble
MSFDGFFLHHIVEELRSELVNGRIQKINQPFEQELVLQIRSNRQSHRLLLSAHPVFGRIQLTQTTFENPAQPSTFIMVLRKYLQGALIESIEQVENDRIVEITVSNKNEIGDHIQATLIIEIMGKHSNILLVDKSSHKILEVIKHVGFSQNSYRTLLPGSTYIAPPSTKSLNPFTIKDEKLFEILQTQELTAKNLQSLFQGLGRDTANELERILVSEKLSAFRNFFNQETKPCLTETSFSPVPFANQVGEPFANLSDLLDTYYKDKAERDRVKQQASELIRRVENELQKNRHKLKKQEKELLATDNAEEFRQKGELLTTFLHQVPNDQDQVILDNYYTNQPIMIALDKALTPNQNAQRYFKRYQKLKEAVKYLTDLIEETKATILYLESVETVLNQAGLEEIAEIREELIQTGFIRRRQREKIQKRKKLEQYLASDGKTIIYVGRNNLQNEELTFKMARKEELWFHAKDIPGSHVVISGNLDPSDAVKTDAAELAAYFSQGRLSNLVQVDMIEVKKLNKPTGGKPGFVTYTGQKTLRVTPDSKKIASMKKS | not soluble
MGSDKIHHHHHHLLLEQTNFRKEVNNIKIFNERNMNNLEYIIPECYADITNIYNNVIVMENIKGLTYNDVKDLDIEKKDIFGKLLMKFGLISILYTSAVHCDIHPGNLFFYINEDVKDKPKYQLGLIDFGIVSFPNRENQNFYYTFFKNIQIDKDFSKLEDVLRCILCEKDKFKNLDTIKKRLLKETIERNIIETDNKYDLDFFLKLSYTINVYGFTFTKEFNQICLSLQVVENLLKNLLLDIRKTQDEIIETFNNINKLIT | not soluble
